B1: ZNF193 (parent)
chain: QKRYHCKECGKVFSQSAGLIQHQR

Variants of: B1
Assay: protein stability index of a GFP-peptide fusion (GPS, HEK-293T) (PSI 1-6); higher = more stable
Conditions: c terminus: a fixed tail appended
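Further: lentivirally expressed fusions sorted by FACS into six bins by GFP to DsRed ratio, PSI derived from sequencing read proportions per bin multiplied by bin number.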

Compared with QKRYHCKECGKVSSQSAGLIQHQR [F13S], QKRYHCKECGKVGSQSAGLIQHQR [F13G] is lower in protein stability index: 2.12 for the first, 1.87 for the second.

First: QKRYHCKECGKVWSQSAGLIQHQR [F13W]
Second: QKRYHCKECGKVESQSAGLIQHQR [F13E]
The protein stability index of the first is lower: 2.03 for the first, 2.42 for the second.

Compared with QKRYHCKECGKVKSQSAGLIQHQR [F13K], QKRYHCKECGKVHSQSAGLIQHQR [F13H] is higher in protein stability index: 2.25 for the first, 3.12 for the second.

First: QKRYHCKECGKVCSQSAGLIQHQR [F13C]
Second: QKRYHCKECGKVDSQSAGLIQHQR [F13D]
The protein stability index of the first is higher: 2.15 for the first, 1.72 for the second.

Going from QKRYHCKECGKVVSQSAGLIQHQR [F13V] to QKRYHCKECGKVPSQSAGLIQHQR [F13P], the protein stability index rises from 2.05 to 2.39.

Going from QKRYHCKECGKVLSQSAGLIQHQR [F13L] to QKRYHCKECGKVISQSAGLIQHQR [F13I], the protein stability index falls from 2.5 to 2.42.

First: QKRYHCKECGKVMSQSAGLIQHQR [F13M]
Second: QKRYHCKECGKVYSQSAGLIQHQR [F13Y]
The protein stability index of the first is lower: 1.82 for the first, 1.99 for the second.

Compared with QKRYHCKECGKVRSQSAGLIQHQR [F13R], QKRYHCKECGKVASQSAGLIQHQR [F13A] is lower in protein stability index: 2.17 for the first, 1.81 for the second.

Compared with QKRYHCKECGKVNSQSAGLIQHQR [F13N], QKRYHCKECGKVTSQSAGLIQHQR [F13T] is higher in protein stability index: 1.67 for the first, 1.91 for the second.

Going from QKRYHCKECGKVQSQSAGLIQHQR [F13Q] to QKRYHCKECGKVFSQCAGLIQHQR [S16C], the protein stability index rises from 2.29 to 2.9.

Going from QKRYHCKECGKVFSQAAGLIQHQR [S16A] to QKRYHCKECGKVFSKSAGLIQHQR [Q15K], the protein stability index falls from 3.71 to 3.45.

First: QKRYHCKECGKVFSMSAGLIQHQR [Q15M]
Second: QKRYHCKECGKVFSPSAGLIQHQR [Q15P]
The protein stability index of the first is higher: 2.06 for the first, 1.58 for the second.

Compared with QKRYHCKECGKVFSGSAGLIQHQR [Q15G], QKRYHCKECGKVFSDSAGLIQHQR [Q15D] is higher in protein stability index: 2.8 for the first, 4.51 for the second.

Compared with QKRYHCKECGKVFSFSAGLIQHQR [Q15F], QKRYHCKECGKVFSASAGLIQHQR [Q15A] is higher in protein stability index: 2.28 for the first, 2.83 for the second.

Going from QKRYHCKECGKVFSVSAGLIQHQR [Q15V] to QKRYHCKECGKVFSISAGLIQHQR [Q15I], the protein stability index falls from 2.16 to 1.92.

First: QKRYHCKECGKVFSCSAGLIQHQR [Q15C]
Second: QKRYHCKECGKVFSTSAGLIQHQR [Q15T]
The protein stability index of the first is lower: 3.93 for the first, 4.01 for the second.

Going from QKRYHCKECGKVFSSSAGLIQHQR [Q15S] to QKRYHCKECGKVFSNSAGLIQHQR [Q15N], the protein stability index rises from 4.11 to 4.24.

Compared with QKRYHCKECGKVFSRSAGLIQHQR [Q15R], QKRYHCKECGKVFSWSAGLIQHQR [Q15W] is lower in protein stability index: 3.08 for the first, 2.06 for the second.

Going from QKRYHCKECGKVFSYSAGLIQHQR [Q15Y] to QKRYHCKECGKVFSLSAGLIQHQR [Q15L], the protein stability index falls from 2.73 to 1.99.

First: QKRYHCKECGKVFSHSAGLIQHQR [Q15H]
Second: QKRYHCKECGKVFSESAGLIQHQR [Q15E]
The protein stability index of the first is lower: 2.91 for the first, 3.85 for the second.

Compared with QKRYHCKECGKYFSQSAGLIQHQR [V12Y], QKRYHCKECGKDFSQSAGLIQHQR [V12D] is higher in protein stability index: 2.75 for the first, 3.27 for the second.

First: QKRYHCKECGKWFSQSAGLIQHQR [V12W]
Second: QKRYHCKECGKTFSQSAGLIQHQR [V12T]
The protein stability index of the first is lower: 2.82 for the first, 3.52 for the second.

Going from QKRYHCKECGKGFSQSAGLIQHQR [V12G] to QKRYHCKECGKQFSQSAGLIQHQR [V12Q], the protein stability index rises from 2.77 to 2.82.

First: QKRYHCKECGKSFSQSAGLIQHQR [V12S]
Second: QKRYHCKECGKCFSQSAGLIQHQR [V12C]
The protein stability index of the first is higher: 3.27 for the first, 2.81 for the second.

Going from QKRYHCKECGKKFSQSAGLIQHQR [V12K] to QKRYHCKECGKHFSQSAGLIQHQR [V12H], the protein stability index falls from 3.2 to 2.82.

Compared with QKRYHCKECGKFFSQSAGLIQHQR [V12F], QKRYHCKECGKNFSQSAGLIQHQR [V12N] is higher in protein stability index: 2.67 for the first, 2.78 for the second.

Going from QKRYHCKECGKPFSQSAGLIQHQR [V12P] to QKRYHCKECGKLFSQSAGLIQHQR [V12L], the protein stability index rises from 2.17 to 2.25.

First: QKRYHCKECGKEFSQSAGLIQHQR [V12E]
Second: QKRYHCKECGKAFSQSAGLIQHQR [V12A]
The protein stability index of the first is higher: 3.23 for the first, 2.43 for the second.

Going from QKRYHCKECGKMFSQSAGLIQHQR [V12M] to QKRYHCKECGKRFSQSAGLIQHQR [V12R], the protein stability index rises from 2.6 to 3.33.

Compared with QKRYHCKECGKIFSQSAGLIQHQR [V12I], QKRYHCKECGLVFSQSAGLIQHQR [K11L] is lower in protein stability index: 2.76 for the first, 2.47 for the second.

Going from QKRYHCKECGPVFSQSAGLIQHQR [K11P] to QKRYHCKECGWVFSQSAGLIQHQR [K11W], the protein stability index rises from 2.12 to 2.32.

First: QKRYHCKECGSVFSQSAGLIQHQR [K11S]
Second: QKRYHCKECGYVFSQSAGLIQHQR [K11Y]
The protein stability index of the first is higher: 2.37 for the first, 1.7 for the second.

Compared with QKRYHCKECGFVFSQSAGLIQHQR [K11F], QKRYHCKECGQVFSQSAGLIQHQR [K11Q] is higher in protein stability index: 1.82 for the first, 3.04 for the second.

First: QKRYHCKECGEVFSQSAGLIQHQR [K11E]
Second: QKRYHCKECGMVFSQSAGLIQHQR [K11M]
The protein stability index of the first is lower: 3.1 for the first, 3.23 for the second.

Going from QKRYHCKECGIVFSQSAGLIQHQR [K11I] to QKRYHCKECGRVFSQSAGLIQHQR [K11R], the protein stability index falls from 2.32 to 2.01.

Going from QKRYHCKECGVVFSQSAGLIQHQR [K11V] to QKRYHCKECGGVFSQSAGLIQHQR [K11G], the protein stability index falls from 2.18 to 1.83.

First: QKRYHCKECGNVFSQSAGLIQHQR [K11N]
Second: QKRYHCKECGHVFSQSAGLIQHQR [K11H]
The protein stability index of the first is lower: 1.66 for the first, 2.34 for the second.

First: QKRYHCKECGTVFSQSAGLIQHQR [K11T]
Second: QKRYHCKECGKVFMQSAGLIQHQR [S14M]
The protein stability index of the first is lower: 2.64 for the first, 2.93 for the second.

Compared with QKRYHCKECGKVFFQSAGLIQHQR [S14F], QKRYHCKECGKVFEQSAGLIQHQR [S14E] is higher in protein stability index: 2.68 for the first, 3.77 for the second.

Compared with QKRYHCKECGKVFRQSAGLIQHQR [S14R], QKRYHCKECGKVFNQSAGLIQHQR [S14N] is lower in protein stability index: 3.03 for the first, 2.78 for the second.

Going from QKRYHCKECGKVFGQSAGLIQHQR [S14G] to QKRYHCKECGKVFQQSAGLIQHQR [S14Q], the protein stability index rises from 2.54 to 2.86.

Compared with QKRYHCKECGKVFHQSAGLIQHQR [S14H], QKRYHCKECGKVFCQSAGLIQHQR [S14C] is lower in protein stability index: 2.98 for the first, 2.58 for the second.

Compared with QKRYHCKECGKVFWQSAGLIQHQR [S14W], QKRYHCKECGKVFPQSAGLIQHQR [S14P] is higher in protein stability index: 2.08 for the first, 2.72 for the second.

Compared with QKRYHCKECGKVFLQSAGLIQHQR [S14L], QKRYHCKECGKVFKQSAGLIQHQR [S14K] is higher in protein stability index: 3.16 for the first, 3.23 for the second.

Going from QKRYHCKECGKVFYQSAGLIQHQR [S14Y] to QKRYHCKECGKVFTQSAGLIQHQR [S14T], the protein stability index falls from 3.25 to 3.06.

QKRYHCKECGKVFAQSAGLIQHQR [S14A] and QKRYHCKECGKVFDQSAGLIQHQR [S14D] are the same in protein stability index: 3.47 for the first, 3.47 for the second.

Going from QKRYHCKECGKVFIQSAGLIQHQR [S14I] to QKRYHCKECGKVFVQSAGLIQHQR [S14V], the protein stability index falls from 2.64 to 2.53.

From the supplement of paper PMC10567573
